# From patent US11673916B2, “Neuroprotective peptides and methods of their use” (University of Pittsburgh—Of the Commonwealth System of …, priority 2020, dated 2023)
# Biological target: T1, Kv2.1 surface clusters (Rattus norvegicus, UniProt P15387)
# T1 construct: expressed in transfected cells; host or cells: primary rat cortical neurons (E16-17 Sprague-Dawley), Lipofectamine 2000
# T1 sequence (P15387 1-857): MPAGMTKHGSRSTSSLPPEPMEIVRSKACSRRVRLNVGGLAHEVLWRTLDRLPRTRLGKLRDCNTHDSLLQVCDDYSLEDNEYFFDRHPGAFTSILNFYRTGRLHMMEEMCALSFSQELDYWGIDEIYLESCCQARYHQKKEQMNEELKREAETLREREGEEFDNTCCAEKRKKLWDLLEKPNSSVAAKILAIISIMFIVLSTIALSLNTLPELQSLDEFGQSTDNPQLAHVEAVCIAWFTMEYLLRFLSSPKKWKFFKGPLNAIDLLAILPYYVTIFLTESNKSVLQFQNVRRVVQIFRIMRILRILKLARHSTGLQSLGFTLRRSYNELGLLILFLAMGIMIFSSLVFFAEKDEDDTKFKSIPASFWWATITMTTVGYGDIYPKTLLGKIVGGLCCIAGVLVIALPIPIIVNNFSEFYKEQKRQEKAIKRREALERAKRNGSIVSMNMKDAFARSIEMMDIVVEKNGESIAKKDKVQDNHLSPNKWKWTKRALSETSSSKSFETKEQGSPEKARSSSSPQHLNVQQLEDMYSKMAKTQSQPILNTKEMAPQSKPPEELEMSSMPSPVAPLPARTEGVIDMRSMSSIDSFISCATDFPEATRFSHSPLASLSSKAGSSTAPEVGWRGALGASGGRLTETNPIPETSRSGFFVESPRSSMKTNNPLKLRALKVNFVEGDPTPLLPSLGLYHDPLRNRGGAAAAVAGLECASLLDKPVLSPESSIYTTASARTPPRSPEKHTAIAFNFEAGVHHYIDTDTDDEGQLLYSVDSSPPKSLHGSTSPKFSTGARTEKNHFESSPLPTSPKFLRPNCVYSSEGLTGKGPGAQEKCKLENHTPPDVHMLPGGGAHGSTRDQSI
# Experiment: Kv2.1 surface cluster density in live cortical neurons co-transfected with Kv2.1-GFP and peptide-expressing plasmids
# Assay type: cell-based
# Conditions: plasmid-driven expression, 24 h after transfection, mean+/-SEM (FIG. 1C)
# Experimental: In vitro experiments utilized primary cortical neuronal cultures prepared from embryonic day 16-17 Sprague-Dawley rats of either sex in a protocol described previously (McCord et al., J Physiol (Lond). 592: 3511-3521, 2014). Timed-pregnant rats (Charles River Laboratories, Wilmington, Mass.) were sacrificed by CO2 inhalation. Embryonic cortices were dissociated with trypsin (0.6 mg/mL) and cells plated in sterile 6-well plates on poly-L-ornithine-coated glass coverslips at a density of 670,000 cells per well. Cytosine arabinoside (1-2 μM) was utilized to inhibit non-neuronal proliferation on day 14 in vitro (DIV); cultures were utilized at 21-25 DIV.
# Transfections were performed with Lipofectamine 2000 (L2K; Invitrogen, Carlsbad, Calif.). Cortical neuronal cultures on glass coverslips were placed into wells containing 500 μL of Dulbecco's minimum essential medium with 2% HyClone bovine serum (D2C; Thermo Fisher Scientific, Waltham, Mass.). A mixture of 1.5 μg of total cDNA and 2 μL of L2K was prepared in 100 μL of Opti-MEM I (Life Technologies Corp., Grand Island, N.Y.) for each well and added. […]
# To analyze Kv2.1 distribution in live primary cortical neurons, cells were transfected with both a tdTomato construct and a GFP-tagged Kv2.1 construct (O'Connell, et al., J Neurosci. 26: 9609-9618, 2006) and imaged on a Nikon A1+ confocal microscope (Nikon, Tokyo, Japan). […] For live images of transfected neurons, object count parameters were customized to define a Kv2.1 cluster as an area of high intensity GFP fluorescence (compared to background), measuring 0.05 μm^2 or larger (Schulien et al., J Physiol (Lond). 594: 2647-2659, 2016). Kv2.1 cluster density was calculated by normalizing the number of Kv2.1 clusters counted to the somatic area of each neuron (#Kv2.1 clusters/μm^2). […] In each neuron analyzed, two populations on Kv2.1-GFP expression were first noted—(a) highly localized signals of clustered Kv2.1 channels, and (b) diffuse background staining that represents freely-dispersed, conducting Kv2.1 channels on the plasma membrane. […]
row,Substance,mean Kv2.1 surface cluster density
1,"MKSTSDFSSIST [Sc-1, plasmid expressed scrambled control of DP-1 (pCMV-Sc-1)]",0.14±0.03 #Kv2.1 clusters/μm^2 of neuronal soma
2,"MKSTSSIDSFTS [DP-1, plasmid expressed expanded declustering peptide (pCMV-DP-1)]",0.04±0.01 #Kv2.1 clusters/μm^2 of neuronal soma
3,Kv2.2 CT: Kv2.2 channel C-terminal peptide expressed from plasmid pCMV-Kv2.2CT (EVIVDMKSTSSIDSFTSCATDFTETE),0.07±0.01 #Kv2.1 clusters/μm^2 of neuronal soma
